{"source": "patent US20040161798A1", "about": "(University of Texas, published 2004)", "binders": {"B1": {"name": "KIXbp1 (peptide)", "peptide": "SVPGSVSWFEFWSAVDAVET", "modifications": "not fully specified (N-terminus); also: N-terminal carboxyfluorescein only in solution titrations, attached to TentaGel resin in bead assays", "notes": "Phage display 20-mer"}, "B2": {"name": "NH2-RWDRYYF (peptide)", "peptide": "H-RWDRYYF", "notes": "Hit of a seven residue peptide library; also called ubiquitin lead peptide; lead peptide"}, "B3": {"name": "Gal80bpscram (peptide)", "peptide": "DLQRDTNKGFHEMFDWDYQN", "modifications": "attached to TentaGel resin in the bead assays", "notes": "Scrambled control of Gal80bp; also called Ga180bpscram; scrambled version of Gal80 bp"}, "B4": {"name": "Mdm2bp (peptide)", "peptide": "PLSQETFSDLWKLLPENNV", "modifications": "not fully specified (N-terminus, C-terminus); also: N-terminal carboxyfluorescein only in solution titrations, attached to TentaGel resin in bead assays", "notes": "also called p53 derived peptide; p53-derived peptide"}}, "key": {"His6-KIX [1]": {"biological_target": "T1, His6-KIX (mouse, UniProt P45481 378-817)", "T1 construct": "range 378-817; Monomer; also called CBP(378-817) from pRSET-CBP(378-817); not shown: N-terminal His6 tag of vector pRSET-A", "T1 sequence (P45481 378-817)": "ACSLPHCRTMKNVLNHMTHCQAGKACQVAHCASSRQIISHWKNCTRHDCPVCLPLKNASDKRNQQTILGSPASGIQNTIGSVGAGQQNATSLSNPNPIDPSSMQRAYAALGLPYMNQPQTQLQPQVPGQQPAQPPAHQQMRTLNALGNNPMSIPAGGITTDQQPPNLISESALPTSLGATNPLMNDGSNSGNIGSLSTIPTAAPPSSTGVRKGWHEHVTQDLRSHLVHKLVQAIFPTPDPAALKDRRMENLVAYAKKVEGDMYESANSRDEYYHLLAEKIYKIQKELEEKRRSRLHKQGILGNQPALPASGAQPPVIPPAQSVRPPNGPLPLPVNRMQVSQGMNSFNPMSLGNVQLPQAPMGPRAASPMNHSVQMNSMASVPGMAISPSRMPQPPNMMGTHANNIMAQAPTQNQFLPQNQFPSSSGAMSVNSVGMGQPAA", "experiment": "fluorescence polarization after adding excess unlabeled peptide", "source_text": "(§1) Fluorescence anisotropy measurements were taken every 30 seconds.\n(§2) Complex half life of immobilized peptides and dimeric proteins. Peptide libraries are rich sources of protein-binding molecules and there exist many straightforward methods to screen such libraries. […] To test the surface-mediated avidity concept, a collection of peptides known to bind different proteins were assembled, some homodimers and some monomers."}, "GST-KIX [2]": {"biological_target": "T2, GST-KIX (mouse, UniProt P45481 378-817)", "T2 construct": "range 378-817; also called GSTCBP(378-817); GST fusion of CBP(378-817)", "T2 sequence (P45481 378-817)": "as above", "experiment": "fluorescence polarization after adding excess unlabeled peptide", "source_text": "as §1, §2"}, "His6-KIX [3]": {"biological_target": "T1, His6-KIX", "experiment": "fluorescence polarization titration in solution; paragraph 167 gives this value for His6-KIX and GST-KIX", "source_text": "(§3) Determination of solution binding constants.\nas §2"}, "GST-KIX [4]": {"biological_target": "T2, GST-KIX", "experiment": "fluorescence polarization titration in solution; paragraph 167 gives this value for His6-KIX and GST-KIX", "source_text": "as §3, §2"}, "GST-KIX [5]": {"biological_target": "T2, GST-KIX", "experiment": "dilution assay on TentaGel beads, Western blot"}, "ubiquitin [6]": {"biological_target": "T3, ubiquitin (Homo sapiens (Human), UniProt P0CG47 1-76, The screen used fluorescently labelled ubiquitin. The ITC and pull-down assays used unlabelled (native) ubiquitin.)", "T3 construct": "Unlabeled in ITC and in the pull-down assays; also called native ubiquitin", "experiment": "isothermal titration calorimetry in solution"}, "ubiquitin [7]": {"biological_target": "T3, ubiquitin", "experiment": "isothermal titration calorimetry in solution, against NH2-RWDRYYF"}, "His6Gal80": {"biological_target": "T4, His6Gal80 (UniProt P04387 1-435)", "T4 construct": "also called Gal80 protein; Gal 80 protein; not shown: N-terminal His6 tag from vector pProEX-1", "T4 sequence (looked up)": "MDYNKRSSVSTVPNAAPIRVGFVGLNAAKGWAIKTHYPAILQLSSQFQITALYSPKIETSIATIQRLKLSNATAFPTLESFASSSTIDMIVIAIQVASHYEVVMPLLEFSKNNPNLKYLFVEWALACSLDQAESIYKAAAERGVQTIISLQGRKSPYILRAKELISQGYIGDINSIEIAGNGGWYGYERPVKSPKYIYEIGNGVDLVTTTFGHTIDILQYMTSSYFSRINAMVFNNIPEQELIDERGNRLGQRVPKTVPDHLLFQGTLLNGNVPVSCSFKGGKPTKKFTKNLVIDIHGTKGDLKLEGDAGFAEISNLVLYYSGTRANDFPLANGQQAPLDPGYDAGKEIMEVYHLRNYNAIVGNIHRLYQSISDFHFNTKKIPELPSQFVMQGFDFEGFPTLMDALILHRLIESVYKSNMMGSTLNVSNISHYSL", "experiment": "protein retained on TentaGel beads with scrambled peptide, SDS-PAGE/Western blot"}, "GST-Mdm2": {"biological_target": "T5, GST-Mdm2 (human, UniProt Q00987 1-188)", "T5 construct": "range 1-188; also called GST fused human Mdm2", "T5 sequence (Q00987 1-188)": "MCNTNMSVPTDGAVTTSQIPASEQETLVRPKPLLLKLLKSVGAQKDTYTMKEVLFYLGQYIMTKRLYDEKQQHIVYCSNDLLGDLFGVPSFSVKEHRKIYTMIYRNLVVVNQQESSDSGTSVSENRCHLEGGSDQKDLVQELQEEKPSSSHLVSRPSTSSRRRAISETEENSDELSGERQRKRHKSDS", "experiment": "protein retained on TentaGel beads with scrambled peptide, SDS-PAGE/Western blot"}, "GST-KIX [8]": {"biological_target": "T2, GST-KIX", "experiment": "protein retained on TentaGel beads with scrambled peptide, SDS-PAGE/Western blot"}, "maltose-binding protein": {"biological_target": "maltose-binding protein (UniProt P0AEX9 27-392 = MBP)", "experiment": "fluorescence polarization titration in solution"}}, "note": "No end group written: not given here."}
{"binder": "B1", "values": [{"measurement": "half-life of the complex in solution", "setting": "His6-KIX [1]", "value": "< 10", "unit": "s"}, {"measurement": "half-life of the complex in solution", "setting": "GST-KIX [2]", "value": "< 10", "unit": "s"}, {"measurement": "Kd", "setting": "His6-KIX [3]", "value": 8, "unit": "µM"}, {"measurement": "Kd", "setting": "GST-KIX [4]", "value": 8, "unit": "µM"}, {"measurement": "half-life of the immobilized complex", "setting": "GST-KIX [5]", "value": "> 2", "unit": "h"}]}
{"binder": "B2", "values": [{"measurement": "Kd", "setting": "ubiquitin [6]", "value": 33, "unit": "µM"}]}
{"binder": "H-WGLRALESRWDRYYF (Hit of the library NH2-X7-S-RWDRYYF)", "note": "[NH2-WGLRALESRWDRYYF]", "values": [{"measurement": "fold better in solution than the lead peptide", "setting": "ubiquitin [7]", "value": "~3", "unit": "fold"}, {"measurement": "Kd", "setting": "ubiquitin [6]", "value": 12, "unit": "µM"}]}
{"binder": "B3", "values": [{"measurement": "binding result", "setting": "His6Gal80", "value": "no binding (tested: 300 nM)"}]}
{"binder": "NVKWLDPNQELPSFLTSLE (attached to TentaGel resin in the bead assays, Scrambled control of Mdm2bp)", "note": "[Mdm2bpscram]", "values": [{"measurement": "binding result", "setting": "GST-Mdm2", "value": "no binding (tested: 300 nM)"}]}
{"binder": "FSASFTEVVDAGWVSPWSVE (attached to TentaGel resin in the bead assays, Scrambled control of KIXbp1)", "note": "[KIXbp1scram]", "values": [{"measurement": "binding result", "setting": "GST-KIX [8]", "value": "no binding (tested: 300 nM)"}]}
{"binder": "B4", "values": [{"measurement": "binding result", "setting": "maltose-binding protein", "value": "no binding"}]}
